Laboratory results taken from article PMC2172305.

Molecular target: Crk (UniProt P46108)
Assay: anti-Flag co-IP, anti-HA blot
Conditions: reference: cells infected with noninvasive Shigella; sites Y421,Y466,Y482

fold change: stronger; reference 1
Substance: cortactin (from UniProt Q60598) cells infected with invasive Shigella
